We go through four variants from IntAct's records for PubMed 17627274.

Sequences and labels used below:
B1: High osmolarity signaling protein SHO1 (Saccharomyces cerevisiae), P40073 (parent)
chain: MSISSKIRPTPRKPSRMATDHSFKMKKFYADPFAISSISLAIVSWVIAIGGSISSASTNESFPRFTWWGIVYQFLIICSLMLFYCFDLVDHYRIFITTSIAVAFVYNTNSATNLVYADGPKKAAASAGVILLSIINLIWILYYGGDNASPTNRWIDSFSIKGIRPSPLENSLHRARRRGNRNTTPYQNNVYNDAIRDSGYATQFDGYPQQQPSHTNYVSSTALAGFENTQPNTSEAVNLHLNTLQQRINSASNAKETNDNSNNQTNTNIGNTFDTDFSNGNTETTMGDTLGLYSDIGDDNFIYKAKALYPYDADDDDAYEISFEQNEILQVSDIEGRWWKARRANGETGIIPSNYVQLIDGPEEMHR
B2: High osmolarity signaling protein SHO1 (Saccharomyces cerevisiae), P40073 (parent)
chain: B1 chain
partner: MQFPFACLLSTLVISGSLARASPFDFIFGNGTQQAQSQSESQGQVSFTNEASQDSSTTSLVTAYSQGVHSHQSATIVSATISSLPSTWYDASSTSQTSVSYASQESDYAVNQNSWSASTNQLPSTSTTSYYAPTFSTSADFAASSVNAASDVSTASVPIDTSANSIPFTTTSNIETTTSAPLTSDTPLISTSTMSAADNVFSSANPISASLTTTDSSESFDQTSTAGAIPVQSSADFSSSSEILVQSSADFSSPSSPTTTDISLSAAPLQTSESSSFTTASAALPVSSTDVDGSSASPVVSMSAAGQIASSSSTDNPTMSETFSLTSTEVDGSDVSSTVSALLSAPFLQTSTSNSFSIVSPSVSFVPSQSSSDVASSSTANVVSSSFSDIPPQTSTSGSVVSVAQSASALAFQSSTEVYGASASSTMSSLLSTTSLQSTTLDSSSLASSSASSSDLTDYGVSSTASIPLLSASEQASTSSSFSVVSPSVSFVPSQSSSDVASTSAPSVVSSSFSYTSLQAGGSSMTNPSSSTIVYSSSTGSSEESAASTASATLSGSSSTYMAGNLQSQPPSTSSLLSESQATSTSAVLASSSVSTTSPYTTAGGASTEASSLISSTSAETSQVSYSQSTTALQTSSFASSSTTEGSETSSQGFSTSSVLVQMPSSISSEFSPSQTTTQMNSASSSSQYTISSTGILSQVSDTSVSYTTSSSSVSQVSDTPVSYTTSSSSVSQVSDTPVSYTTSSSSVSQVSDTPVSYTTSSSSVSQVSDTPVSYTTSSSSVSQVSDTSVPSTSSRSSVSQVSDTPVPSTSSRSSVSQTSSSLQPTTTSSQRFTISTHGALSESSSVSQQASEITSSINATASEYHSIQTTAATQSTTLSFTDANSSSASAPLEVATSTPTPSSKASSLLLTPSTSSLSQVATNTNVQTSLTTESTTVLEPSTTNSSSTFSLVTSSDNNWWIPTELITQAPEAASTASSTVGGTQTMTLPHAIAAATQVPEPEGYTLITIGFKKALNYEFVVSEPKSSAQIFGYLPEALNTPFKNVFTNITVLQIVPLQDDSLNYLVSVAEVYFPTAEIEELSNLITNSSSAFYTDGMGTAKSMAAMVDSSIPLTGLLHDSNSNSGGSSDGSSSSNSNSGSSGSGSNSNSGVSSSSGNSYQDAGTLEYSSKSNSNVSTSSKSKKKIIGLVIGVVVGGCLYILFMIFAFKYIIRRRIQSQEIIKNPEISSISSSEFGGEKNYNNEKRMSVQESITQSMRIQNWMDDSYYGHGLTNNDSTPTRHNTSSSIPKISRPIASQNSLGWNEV

In one assay the parent is B1. To be noted: with hkr1_yeast HKR1, P41809.
Sequence of hkr1_yeast HKR1, P41809 (P41809 whole entry): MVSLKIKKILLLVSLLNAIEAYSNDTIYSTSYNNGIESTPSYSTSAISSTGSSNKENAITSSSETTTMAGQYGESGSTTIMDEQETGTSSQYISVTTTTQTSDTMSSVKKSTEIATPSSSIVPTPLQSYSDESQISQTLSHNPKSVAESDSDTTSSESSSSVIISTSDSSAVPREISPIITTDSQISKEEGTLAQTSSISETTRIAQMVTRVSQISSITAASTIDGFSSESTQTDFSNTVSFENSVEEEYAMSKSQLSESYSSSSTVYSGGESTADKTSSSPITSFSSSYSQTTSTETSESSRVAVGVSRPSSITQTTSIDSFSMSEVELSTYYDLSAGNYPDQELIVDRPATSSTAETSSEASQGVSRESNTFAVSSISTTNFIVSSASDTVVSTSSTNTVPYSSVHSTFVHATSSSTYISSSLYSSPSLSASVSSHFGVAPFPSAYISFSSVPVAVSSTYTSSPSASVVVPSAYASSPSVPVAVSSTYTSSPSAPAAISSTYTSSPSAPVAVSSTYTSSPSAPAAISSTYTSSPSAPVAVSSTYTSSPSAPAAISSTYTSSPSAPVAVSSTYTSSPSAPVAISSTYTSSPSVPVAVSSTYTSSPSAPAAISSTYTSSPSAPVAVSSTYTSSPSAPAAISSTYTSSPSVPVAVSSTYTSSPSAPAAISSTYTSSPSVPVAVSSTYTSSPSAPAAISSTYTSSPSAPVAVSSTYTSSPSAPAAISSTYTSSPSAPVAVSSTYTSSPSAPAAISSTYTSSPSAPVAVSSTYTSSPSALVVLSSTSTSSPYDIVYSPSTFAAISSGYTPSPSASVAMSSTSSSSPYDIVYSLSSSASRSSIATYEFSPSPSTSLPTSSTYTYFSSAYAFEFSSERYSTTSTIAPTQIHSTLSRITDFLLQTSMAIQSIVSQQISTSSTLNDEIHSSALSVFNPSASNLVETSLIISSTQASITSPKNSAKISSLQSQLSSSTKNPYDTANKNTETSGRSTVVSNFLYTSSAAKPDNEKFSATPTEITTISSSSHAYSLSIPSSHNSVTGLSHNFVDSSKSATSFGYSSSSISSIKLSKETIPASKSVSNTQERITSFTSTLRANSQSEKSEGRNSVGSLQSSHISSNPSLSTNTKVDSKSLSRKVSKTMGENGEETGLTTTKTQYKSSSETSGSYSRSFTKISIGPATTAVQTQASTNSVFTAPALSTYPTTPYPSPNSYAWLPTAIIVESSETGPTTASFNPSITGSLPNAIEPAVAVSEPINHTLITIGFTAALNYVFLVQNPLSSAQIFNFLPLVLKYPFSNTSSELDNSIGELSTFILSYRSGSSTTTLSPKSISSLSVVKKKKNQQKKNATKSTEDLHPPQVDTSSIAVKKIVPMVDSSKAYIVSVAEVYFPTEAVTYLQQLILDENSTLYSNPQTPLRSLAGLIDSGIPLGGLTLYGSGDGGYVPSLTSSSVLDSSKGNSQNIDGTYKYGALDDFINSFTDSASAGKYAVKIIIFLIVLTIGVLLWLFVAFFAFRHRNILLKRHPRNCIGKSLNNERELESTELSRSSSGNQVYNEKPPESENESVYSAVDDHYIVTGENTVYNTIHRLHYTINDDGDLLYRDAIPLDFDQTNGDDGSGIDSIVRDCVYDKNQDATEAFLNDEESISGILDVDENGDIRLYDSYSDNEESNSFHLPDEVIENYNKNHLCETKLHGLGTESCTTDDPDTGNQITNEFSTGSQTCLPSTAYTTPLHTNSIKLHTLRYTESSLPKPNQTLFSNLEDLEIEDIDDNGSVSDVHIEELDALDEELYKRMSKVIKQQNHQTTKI
Regarding Y106H, the “effect of a mutation on the interaction” value is recorded as “decreasing interaction”.
Still for that read-out and setting: as for T108I, the entry is “decreasing interaction”.

Another assay covers variants of B2. To be noted: with msb2_yeast MSB2, P32334.
Take T108I: the “effect of a mutation on the interaction” value is recorded as “decreasing interaction”.
On the same count and under the same terms, under Y106H stands “decreasing interaction”.
